From the supplement of paper PMC5998384 come the findings set out here.

Data set [1] has as its system HeLa Kyoto. Nature of the data set: solubility in G1/S (NP-40 vs SDS abundance) (log2 ratio); higher = more soluble. The conditions noted are these: cell cycle stage: G1/S.
Data set [2] concerns HeLa Kyoto. Nature of the data set: solubility change mitosis vs G1/S (difference of NP-40 vs SDS log2 ratios) (log2 ratio difference); higher = more soluble in mitosis.
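Wherever solubility change mitosis vs G1/S (difference of NP-40 vs SDS log2 ratios) is given: synchronized HeLa Kyoto cells (double thymidine block for G1/S, nocodazole release for mitosis), protein amounts in NP-40 versus SDS lysates quantified by mass spectrometry, three biological replicates.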
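Wherever solubility in G1/S (NP-40 vs SDS abundance) is given: HeLa Kyoto cells arrested at G1/S by double thymidine block, proteins quantified by TMT10plex mass spectrometry in mild NP-40 versus SDS extracts, three biological replicates.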

For the sequence “MGCAPSIHISERLVAEDAPSPAAPPLSSGGPRLPQGQKTAALPRTRGAGLLESELRDGSGKKVAVADVQFGPMRFHQDQLQVLLVFTKEDNQCNGFCRACEKAGFKCTVTKEAQAVLACFLDKHHDIIIIDHRNPRQLDAEALCRSIRSSKLSENTVIVGVVRRVDREELSVMPFISAGFTRRYVENPNIMACYNELLQLEFGEVRSQLKLRACNSVFTALENSEDAIEITSEDRFIQYANPAFETTMGYQSGELIGKELGEVPINEKKADLLDTINSCIRIGKEWQGIYYAKKKNGDNIQQNVKIIPVIGQGGKIRHYVSIIRVCNGNNKAEKISECVQSDTHTDNQTGKHKDRRKGSLDVKAVASRATEVSSQRRHSSMARIHSMTIEAPITKVINIINAAQESSPMPVTEALDRVLEILRTTELYSPQFGAKDDDPHANDLVGGLMSDGLRRLSGNEYVLSTKNTQMVSSNIITPISLDDVPPRIARAMENEEYWDFDIFELEAATHNRPLIYLGLKMFARFGICEFLHCSESTLRSWLQIIEANYHSSNPYHNSTHSADVLHATAYFLSKERIKETLDPIDEVAALIAATIHDVDHPGRTNSFLCNAGSELAILYNDTAVLESHHAALAFQLTTGDDKCNIFKNMERNDYRTLRQGIIDMVLATEMTKHFEHVNKFVNSINKPLATLEENGETDKNQEVINTMLRTPENRTLIKRMLIKCADVSNPCRPLQYCIEWAARISEEYFSQTDEEKQQGLPVVMPVFDRNTCSIPKSQISFIDYFITDMFDAWDAFVDLPDLMQHLDNNFKYWKGLDEMKLRNLRPPPE [PDE8A]”, in the data set on HeLa Kyoto [1], the “solubility in G1/S (log2)” value is -0.192. For the same sequence, the “solubility change mitosis (log2)” value in the data set on HeLa Kyoto [2] is -0.222.
For “MGELCRRDSALTALDEETLWEMMESHRHRIVRCICPSRLTPYLRQAKVLCQLDEEEVLHSPRLTNSAMRAGHLLDLLKTRGKNGAIAFLESLKFHNPDVYTLVTGLQPDVDFSNFSGLMETSKLTECLAGAIGSLQEELNQEKGQKEVLLRRCQQLQEHLGLAETRAEGLHQLEADHSRMKREVSAHFHEVLRLKDEMLSLSLHYSNALQEKELAASRCRSLQEELYLLKQELQRANMVSSCELELQEQSLRTASDQESGDEELNRLKEENEKLRSLTFSLAEKDILEQSLDEARGSRQELVERIHSLRERAVAAERQREQYWEEKEQTLLQFQKSKMACQLYREKVNALQAQVCELQKERDQAYSARDSAQREISQSLVEKDSLRRQVFELTDQVCELRTQLRQLQAEPPGVLKQEARTREPCPREKQRLVRMHAICPRDDSDCSLVSSTESQLLSDLSATSSRELVDSFRSSSPAPPSQQSLYKRVAEDFGEEPWSFSSCLEIPEGDPGALPGAKAGDPHLDYELLDTADLPQLESSLQPVSPGRLDVSESGVLMRRRPARRILSQVTMLAFQGDALLEQISVIGGNLTGIFIHRVTPGSAADQMALRPGTQIVMVDYEASEPLFKAVLEDTTLEEAVGLLRRVDGFCCLSVKVNTDGYKRLLQDLEAKVATSGDSFYIRVNLAMEGRAKGELQVHCNEVLHVTDTMFQGCGCWHAHRVNSYTMKDTAAHGTIPNYSRAQQQLIALIQDMTQQCTVTRKPSSGGPQKLVRIVSMDKAKASPLRLSFDRGQLDPSRMEGSSTCFWAESCLTLVPYTLVRPHRPARPRPVLLVPRAVGKILSEKLCLLQGFKKCLAEYLSQEEYEAWSQRGDIIQEGEVSGGRCWVTRHAVESLMEKNTHALLDVQLDSVCTLHRMDIFPIVIHVSVNEKMAKKLKKGLQRLGTSEEQLLEAARQEEGDLDRAPCLYSSLAPDGWSDLDGLLSCVRQAIADEQKKVVWTEQSPR [CARD14]”, the “solubility in G1/S (log2)” value in the data set on HeLa Kyoto [1] was -0.00296. Further, the “solubility change mitosis (log2)” value in the data set on HeLa Kyoto [2] was 0.0129.
For “MGEPSREEYKIQSFDAETQQLLKTALKDPGAVDLEKVANVIVDHSLQDCVFSKEAGRMCYAIIQAESKQAGQSVFRRGLLNRLQQEYQAREQLRARSLQGWVCYVTFICNIFDYLRVNNMPMMALVNPVYDCLFRLAQPDSLSKEEEVDCLVLQLHRVGEQLEKMNGQRMDELFVLIRDGFLLPTGLSSLAQLLLLEIIEFRAAGWKTTPAAHKYYYSEVSD [MIF4GD]”, the “solubility in G1/S (log2)” value with HeLa Kyoto [1] was 0.085. Moreover, the “solubility change mitosis (log2)” value with HeLa Kyoto [2] was determined as 0.238.
“MGFWCRMSENQEQEEVITVRVQDPRVQNEGSWNSYVDYKIFLHTNSKAFTAKTSCVRRRYREFVWLRKQLQRNAGLVPVPELPGKSTFFGTSDEFIEKRRQGLQHFLEKVLQSVVLLSDSQLHLFLQSQLSVPEIEACVQGRSTMTVSDAILRYAMSNCGWAQEERQSSSHLAKGDQPKSCCFLPRSGRRSSPSPPPSEEKDHLEVWAPVVDSEVPSLESPTLPPLSSPLCCDFGRPKEGTSTLQSVRRAVGGDHAVPLDPGQLETVLEK [SNX11]”: in the data set with HeLa Kyoto [1], the “solubility in G1/S (log2)” value is 0.38. Moreover, the “solubility change mitosis (log2)” value in the data set with HeLa Kyoto [2] is -0.17.
For the sequence “MGIWQRLLLFGGVSLRAGGGATAPLGGSRAMVCGRQLSGAGSETLKQRRTQIMSRGLPKQKPIEGVKQVIVVASGKGGVGKSTTAVNLALALAANDSSKAIGLLDVDVYGPSVPKMMNLKGNPELSQSNLMRPLLNYGIACMSMGFLVEESEPVVWRGLMVMSAIEKLLRQVDWGQLDYLVVDMPPGTGDVQLSVSQNIPITGAVIVSTPQDIALMDAHKGAEMFRRVHVPVLGLVQNMSVFQCPKCKHKTHIFGADGARKLAQTLGLEVLGDIPLHLNIREASDTGQPIVFSQPESDEAKAYLRIAVEVVRRLPSPSE [NUBPL]”, the “solubility in G1/S (log2)” value in the data set on HeLa Kyoto [1] amounted to 0.45. Moreover, in the data set with HeLa Kyoto [2], the “solubility change mitosis (log2)” value stood at 0.138.
With “MGKAKVPASKRAPSSPVAKPGPVKTLTRKKNKKKKRFWKSKAREVSKKPASGPGAVVRPPKAPEDFSQNWKALQEWLLKQKSQAPEKPLVISQMGSKKKPKIIQQNKKETSPQVKGEEMPAGKDQEASRGSVPSGSKMDRRAPVPRTKASGTEHNKKGTKERTNGDIVPERGDIEHKKRKAKEAAPAPPTEEDIWFDDVDPADIEAAIGPEAAKIARKQLGQSEGSVSLSLVKEQAFGGLTRALALDCEMVGVGPKGEESMAARVSIVNQYGKCVYDKYVKPTEPVTDYRTAVSGIRPENLKQGEELEVVQKEVAEMLKGRILVGHALHNDLKVLFLDHPKKKIRDTQKYKPFKSQVKSGRPSLRLLSEKILGLQVQQAEHCSIQDAQAAMRLYVMVKKEWESMARDRRPLLTAPDHCSDDA [REXO4]”, the “solubility in G1/S (log2)” value in the data set with HeLa Kyoto [1] was -0.936. For the same sequence, the “solubility change mitosis (log2)” value in the data set on HeLa Kyoto [2] was 0.875.
Turning to “MGKSCKVVVCGQASVGKTSILEQLLYGNHVVGSEMIETQEDIYVGSIETDRGVREQVRFYDTRGLRDGAELPRHCFSCTDGYVLVYSTDSRESFQRVELLKKEIDKSKDKKEVTIVVLGNKCDLQEQRRVDPDVAQHWAKSEKVKLWEVSVADRRSLLEPFVYLASKMTQPQSKSAFPLSRKNKGSGSLDG [NKIRAS2]”, the “solubility in G1/S (log2)” value in the data set on HeLa Kyoto [1] was -0.133. For the same sequence, in the data set with HeLa Kyoto [2], the “solubility change mitosis (log2)” value was -0.0114.
In the same order, the values of “MGLSTVPDLLLPLVLLELLVGIYPSGVIGLVPHLGDREKRDSVCPQGKYIHPQNNSICCTKCHKGTYLYNDCPGPGQDTDCRECESGSFTASENHLRHCLSCSKCRKEMGQVEISSCTVDRDTVCGCRKNQYRHYWSENLFQCFNCSLCLNGTVHLSCQEKQNTVCTCHAGFFLRENECVSCSNCKKSLECTKLCLPQIENVKGTEDSGTTVLLPLVIFFGLCLLSLLFIGLMYRYQRWKSKLYSIVCGKSTPEKEGELEGTTTKPLAPNPSFSPTPGFTPTLGFSPVPSSTFTSSSTYTPGDCPNFAAPRREVAPPYQGADPILATALASDPIPNPLQKWEDSAHKPQSLDTDDPATLYAVVENVPPLRWKEFVRRLGLSDHEIDRLELQNGRCLREAQYSMLATWRRRTPRREATLELLGRVLRDMDLLGCLEDIEEALCGPAALPPAPSLLR [TNFRSF1A]” are -0.165 and -0.132.
